From US12662541B2, “Antibody-drug conjugates against the receptor tyrosine kinase EphA5” (Rutgers, The State University of New Jersey, priority 2021, dated 2026)
Substitutions are numbered along the chain they refer to.

B1: VH2/VK2: humanized anti-EphA5 antibody, VH SEQ ID NO:3, VL SEQ ID NO:10 (antibody, V domains shown)
VH: EVTLVESGGGLVQPGGSLKLSCAASGFTFSTFGIHWVRQAPGKGLEWVAYISGASTTIYYADTVKGRFTISRDNSKNTLYLQMNSLRSEDTAMYYCARYGTSFPYGLDYWGQGTLVTVSS
VL: DIVMTQSPDSLAVSLGERATINCKASQSVDYDGDSYMNWYQQKPGKAPKLLIYGASNLESGIPDRFSGSGSGTDFTLTISRLEPEDAASYYCQQSNEDPFTFGQGTKLEIK
B2: VH6/VK1: humanized anti-EphA5 antibody, VH SEQ ID NO:7, VL SEQ ID NO:9 (antibody, V domains shown)
VH: B1 VH with T3Q, Y50S, T63S, S88A, M93V
VL: B1 VL with D9G, P84E
B3: VH5/VK5: humanized anti-EphA5 antibody, VH SEQ ID NO:6, VL SEQ ID NO:13 (antibody, V domains shown)
VH: B1 VH with T3Q, T63S, S88A, M93V
VL: B1 VL with A25S, S89V
B4: VH3/VK2: humanized anti-EphA5 antibody, VH SEQ ID NO:4, VL SEQ ID NO:10 (antibody, V domains shown)
VH: B1 VH with T3Q
VL: B1 VL
B5: VH3/VK1: humanized anti-EphA5 antibody, VH SEQ ID NO:4, VL SEQ ID NO:9 (antibody, V domains shown)
VH: B1 VH with T3Q
VL: B1 VL with D9G, P84E
B6: VH2/VK5: humanized anti-EphA5 antibody, VH SEQ ID NO:3, VL SEQ ID NO:13 (antibody, V domains shown)
VH: B1 VH
VL: B1 VL with A25S, S89V
B7: VH2/VK4: humanized anti-EphA5 antibody, VH SEQ ID NO:3, VL SEQ ID NO:12 (antibody, V domains shown)
VH: B1 VH
VL: B1 VL with A25S
B8: VH6/VK3: humanized anti-EphA5 antibody, VH SEQ ID NO:7, VL SEQ ID NO:11 (antibody, V domains shown)
VH: B1 VH with T3Q, Y50S, T63S, S88A, M93V
VL: B1 VL with S89V
B9: VH6/VK2: humanized anti-EphA5 antibody, VH SEQ ID NO:7, VL SEQ ID NO:10 (antibody, V domains shown)
VH: B1 VH with T3Q, Y50S, T63S, S88A, M93V
VL: B1 VL
B10: VH4/VK5: humanized anti-EphA5 antibody, VH SEQ ID NO:5, VL SEQ ID NO:13 (antibody, V domains shown)
VH: B1 VH with T3Q, S88A, M93V
VL: B1 VL with A25S, S89V
B11: VH1/VK5: humanized anti-EphA5 antibody, VH SEQ ID NO:2, VL SEQ ID NO:13 (antibody, V domains shown)
VH: B1 VH with L18R, L115S
VL: B1 VL with A25S, S89V
B12: VH1/VK4: humanized anti-EphA5 antibody, VH SEQ ID NO:2, VL SEQ ID NO:12 (antibody, V domains shown)
VH: B1 VH with L18R, L115S
VL: B1 VL with A25S
B13: VH2/VK3: humanized anti-EphA5 antibody, VH SEQ ID NO:3, VL SEQ ID NO:11 (antibody, V domains shown)
VH: B1 VH
VL: B1 VL with S89V
B14: VH1/VK3: humanized anti-EphA5 antibody, VH SEQ ID NO:2, VL SEQ ID NO:11 (antibody, V domains shown)
VH: B1 VH with L18R, L115S
VL: B1 VL with S89V
B15: VH6/VK4: humanized anti-EphA5 antibody, VH SEQ ID NO:7, VL SEQ ID NO:12 (antibody, V domains shown)
VH: B1 VH with T3Q, Y50S, T63S, S88A, M93V
VL: B1 VL with A25S
B16: VH6/VK5: humanized anti-EphA5 antibody, VH SEQ ID NO:7, VL SEQ ID NO:13 (antibody, V domains shown)
VH: B1 VH with T3Q, Y50S, T63S, S88A, M93V
VL: B1 VL with A25S, S89V
B17: VH5/VK1: humanized anti-EphA5 antibody, VH SEQ ID NO:6, VL SEQ ID NO:9 (antibody, V domains shown)
VH: B1 VH with T3Q, T63S, S88A, M93V
VL: B1 VL with D9G, P84E
B18: VH4/VK2: humanized anti-EphA5 antibody, VH SEQ ID NO:5, VL SEQ ID NO:10 (antibody, V domains shown)
VH: B1 VH with T3Q, S88A, M93V
VL: B1 VL
B19: VH4/VK1: humanized anti-EphA5 antibody, VH SEQ ID NO:5, VL SEQ ID NO:9 (antibody, V domains shown)
VH: B1 VH with T3Q, S88A, M93V
VL: B1 VL with D9G, P84E

Each molecule was assayed against T1, rhEphA5 antigen (Homo sapiens, UniProt P54756) (assay: ka (1/Ms)).
T1 construct: purchased R and D systems 3036-A5
Procedure: (§1) Table printed on a drawing sheet, FIG. 13
Head of the field: ka (1/Ms)
(§2) The patent's description of the figure: FIG. 13 is a table illustrating the single cycle kinetic parameters of chimeric (VH0/VK0) and humanized 11C12 variants (tested as cell culture supernatants) binding to rhEphA5 antigen as determined using the Biacore T200. The relative KD was calculated by dividing the KD of the humanized variant by that of the VH0/VK0 (top row) assayed in the same experiment. The variants marked with ‘*’ have KD values that are within two-fold of, or are better than, the chimeric antibody. The chimeric and selected variants marked in ‘#’ were identified as the main leads for purification. […]
(§3) Where the first naming reader finds the target: description_of_the_figure: humanized 11C12 variants (tested as cell culture supernatants) binding to rhEphA5 antigen as determined using the Biacore T200

In order of rising ka:
1. B2  1.65e-09 M⁻¹ s⁻¹
2. B9  1.74e-09 M⁻¹ s⁻¹
3. B8  5.22e-09 M⁻¹ s⁻¹
4. B3  1.37e-06 M⁻¹ s⁻¹
5. B7  1.37e-06 M⁻¹ s⁻¹
6. B10  1.37e-06 M⁻¹ s⁻¹
7. B1  1.3e+06 M⁻¹ s⁻¹
8. B4  1.34e+06 M⁻¹ s⁻¹
9. B6  1.34e+06 M⁻¹ s⁻¹
10. B5  1.39e+06 M⁻¹ s⁻¹

Each molecule was assayed against T1, rhEphA5 antigen (assay: KD (M)).
Procedure: as §1
Head of the field: KD (M)
as §2, §3

In order of rising Kd:
1. B5  0.884 nM
2. B7  0.917 nM
3. B14  0.948 nM
4. B4  0.968 nM
5. B1  0.971 nM
6. B13  0.985 nM
7. B6  1.05 nM
8. B12  1.1 nM
9. B11  1.12 nM

The molecules below were run against T1, rhEphA5 antigen (assay: kd (1/s)).
Procedure: as §1
Head of the field: kd (1/s)
as §2, §3

In order of falling “kd” value:
1. B8  0.341 s⁻¹
2. B16  0.285 s⁻¹
3. B15  0.209 s⁻¹
4. B3  0.0014 s⁻¹
5. B6  0.0014 s⁻¹
6. B11  0.00139 s⁻¹
7. B12  0.00137 s⁻¹
8. B10  0.00137 s⁻¹
9. B13  0.00132 s⁻¹
10. B4  0.0013 s⁻¹
11. B19  0.00129 s⁻¹
12. B17  0.00127 s⁻¹
13. B1  0.00126 s⁻¹
14. B7  0.00126 s⁻¹
15. B14  0.00125 s⁻¹
16. B5  0.00123 s⁻¹
17. B18  0.00114 s⁻¹
